Reference: patent publication US20120065123A1 (published 2012)
Where no end group is shown, it is not given here.

T1: Gal80 (UniProt P04387 1-435, limits assumed)
T1 construct: Cy3/Cy5 or otherwise fluorescently labelled on arrays; immobilised in SPR and ELISA
T1 sequence (looked up): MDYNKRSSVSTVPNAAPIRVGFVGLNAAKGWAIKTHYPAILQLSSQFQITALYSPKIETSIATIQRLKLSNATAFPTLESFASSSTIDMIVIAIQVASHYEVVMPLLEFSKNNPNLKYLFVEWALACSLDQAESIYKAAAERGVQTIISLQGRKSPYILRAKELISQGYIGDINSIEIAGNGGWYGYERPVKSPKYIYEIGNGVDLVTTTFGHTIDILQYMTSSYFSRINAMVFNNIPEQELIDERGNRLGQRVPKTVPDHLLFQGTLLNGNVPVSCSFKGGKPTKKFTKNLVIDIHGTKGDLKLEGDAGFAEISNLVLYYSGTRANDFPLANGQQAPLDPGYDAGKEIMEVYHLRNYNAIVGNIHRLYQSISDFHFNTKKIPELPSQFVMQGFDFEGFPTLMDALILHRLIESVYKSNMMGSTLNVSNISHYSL


Legend:
[1] = target: T2, pooled human transferrin (Sigma), biotinylated (human, UniProt P02787 20-698, biotinylated at amines with NHS-LC-LC-Biotin); test: SPR (Biacore A-100), biotinylated transferrin captured on Neutravidin, unpurified peptide injected for 60 s [j]
T2 construct: Captured on Neutravidin on a CM5 chip (Biacore A-100)

Gal80 [2] = target: T1, Gal80; test: SPR with gal80 immobilised on the chip; Kd from on and off rates
Gal80 [3] = target: T1, Gal80; test: SPR, synbody in solution, surface-bound Gal80; SPR, synbody in solution, surface-bound Gal80
Gal80 [4] = target: T1, Gal80; test: gel shift assay; gel shift assay
[5] = target: T2, pooled human transferrin (Sigma), …; test: SPR (Biacore A-100), biotinylated transferrin captured on Neutravidin, unpurified peptide injected for 60 s [b]
[6] = target: T2, pooled human transferrin (Sigma), …; test: SPR (Biacore A-100), biotinylated transferrin captured on Neutravidin, unpurified peptide injected for 60 s [i]
Excerpt: (§1) A Biacore A-100 Surface Plasmon Resonance (SPR) system was used to measure the binding response of each peptide to several different target proteins immobilized on a gold surface. The A-100 has four different flow cells and within each flow cell are five addressable spots. Therefore four different proteins and a negative control reference can be used per flow cell. Depending on the purpose of the assay, up to 16 different target proteins can be immobilized on a single SPR chip. The instrument is equipped to evaluate up to 10 384-well plates unattended and can process approximately four 384-well plates per day. Sensorgrams are collected from each immobilized protein, so a binding profile for each analyte versus each of the protein targets is generated for each injection. Target proteins were immobilized using a biotin capture approach in which a CM5 chip was activated using standard amine coupling chemistry and Neutravidin was covalently coupled to the chip. Each biotinylated protein was injected over a single spot and the amount of protein captured was measured.

Gal80 [7] = target: T1, Gal80; test: light-directed peptide array, 25 pM labelled GAL80 with 1 mg/mL E. coli lysate; against template BP2
Experimental: Variant peptides in the array were designed to contain both invariable and variable positions. Invariable positions were coupled using standard Fmoc solid-phase synthesis protocols. Briefly, the Fmoc protecting group was removed with 20% piperidine in DMF for 20 minutes. After deprotection, the next Fmoc amino acid was coupled to the N-terminus of the peptide chain (0.1 M Fmoc amino acid, 0.1 M HATU, 0.4 M DIPEA in DMF). Amino acid coupling times were typically 60 minutes. Variable positions in the peptide were coupled using light-directed chemistry. First, the N-terminal Fmoc group was removed from all peptides using 20% piperidine in DMF and the photolabile protecting group MeNPOC—Cl was coupled to the liberated N-terminal amines for 30 minutes. The array was then immersed in photolysis solution containing 30% β-mercaptoethanol, 7% DIPEA in acetonitrile. A photolithographic mask was projected on the substrate using a Digital Mirror Device, to selectively remove the MeNPOC protecting group in the illuminated regions. The substituted FMOC amino acid was added and allowed to couple to the selectively deprotected regions. After coupling, photodeprotection was repeated for different regions on the array and the next amino acid was coupled. This photodeprotection/coupling cycle was repeated for all substituted amino acids at a particular position in the peptide. After all peptides on the array are grown to the desired length a final side-chain deprotection is done using 95% TFA, 2.5% TIPS, 2.5% H₂O for 1 hour.
The chemically diverse set of 10 amino acids {I, D, W, L, E, G, T, S, K, R} were selected as the amino acids to substitute into the four variable positions for a total of 10,000 unique variant peptides. Three replicates were included in the array to produce a total of 30,000 array features. The variant array (including the lead peptide) was synthesized using light-directed synthesis described above.

[8] = target: T2, pooled human transferrin (Sigma), …; test: SPR (Biacore A-100), biotinylated transferrin captured on Neutravidin, unpurified peptide injected for 60 s [g]
[9] = target: T2, pooled human transferrin (Sigma), …; test: SPR (Biacore A-100), biotinylated transferrin captured on Neutravidin, unpurified peptide injected for 60 s [d]
[10] = target: T2, pooled human transferrin (Sigma), …; test: SPR (Biacore A-100), biotinylated transferrin captured on Neutravidin, unpurified peptide injected for 60 s [c]
Excerpt: as §1

[11] = target: T2, pooled human transferrin (Sigma), …; test: SPR (Biacore A-100), biotinylated transferrin captured on Neutravidin, unpurified peptide injected for 60 s [k]
[12] = target: T2, pooled human transferrin (Sigma), …; test: SPR (Biacore A-100), biotinylated transferrin captured on Neutravidin, unpurified peptide injected for 60 s [l]
Excerpt: as §1

[13] = target: T2, pooled human transferrin (Sigma), …; test: SPR (Biacore A-100), biotinylated transferrin captured on Neutravidin, unpurified peptide injected for 60 s [f]

T2 sequence (P02787 20-698 limits assumed): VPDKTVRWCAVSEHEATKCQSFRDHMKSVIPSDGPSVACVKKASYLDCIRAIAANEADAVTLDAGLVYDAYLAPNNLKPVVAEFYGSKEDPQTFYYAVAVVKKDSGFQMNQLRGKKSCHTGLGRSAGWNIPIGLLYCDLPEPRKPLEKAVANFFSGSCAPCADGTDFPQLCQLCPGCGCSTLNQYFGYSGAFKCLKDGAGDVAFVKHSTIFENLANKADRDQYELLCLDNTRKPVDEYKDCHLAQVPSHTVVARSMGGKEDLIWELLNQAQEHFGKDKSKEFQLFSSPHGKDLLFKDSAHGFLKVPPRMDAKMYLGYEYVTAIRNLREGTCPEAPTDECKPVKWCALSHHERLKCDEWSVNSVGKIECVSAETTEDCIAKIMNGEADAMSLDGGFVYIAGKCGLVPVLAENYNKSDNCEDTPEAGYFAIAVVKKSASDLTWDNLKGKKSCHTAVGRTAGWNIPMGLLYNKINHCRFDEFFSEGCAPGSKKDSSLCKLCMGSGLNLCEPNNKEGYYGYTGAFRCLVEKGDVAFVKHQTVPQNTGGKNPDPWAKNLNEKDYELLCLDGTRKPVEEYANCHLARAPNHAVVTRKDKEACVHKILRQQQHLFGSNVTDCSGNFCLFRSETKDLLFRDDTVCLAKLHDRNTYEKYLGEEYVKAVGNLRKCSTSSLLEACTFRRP

| Binder | Fold Enhancement (Gal80 [7]) | further results |
| --- | --- | --- |
| DRDTPWETTNKTEEGIEGSC (Unpurified library peptide) [transferrin binding peptide of FIG. 60J] |  | binding result [1]: binds |
| GTEKGTSGWLKTGSC (chain 1 pos 15: Cys thiol joined via SMCC maleimide to an amine-modified cytosine of the double-stranded DNA linker, which the letters cannot carry, also called BP1 alone conjugated to DNA linker) [BP1 on dsDNA] |  | Kd (Gal80 [2]): 482 nM |
| linker-optimized BP1/BP2 DNA-linked synbody (BP1 on the template strand, BP2 at position 13 from the 3' end of the variable strand) (designed binder, not fully specified (some residues, bridges); also: two DNA strands, each joined to a peptide C-terminal Cys through SMCC, double-stranded DNA linker, Two peptides held by a double-stranded DNA linker; for ELISA a third psoralen-crosslinked strand carried biotin and streptavidin-HRP; also called gal80 synbody; the linker-optimized synbody) peptide 1: GTEKGTSGWLKTGSC peptide 2: EGEWTEGKLSLRGSC |  | Kd (Gal80 [3]): 91 nM; Kd (Gal80 [4]): ~100 nM |
| NIRMLLRFTVFPAQKLIGSC (Unpurified library peptide) [transferrin binding peptide of FIG. 60B] |  | binding result [5]: binds |
| AMMRMDMAGLNKIVFHQGSC (Unpurified library peptide) [transferrin binding peptide of FIG. 60I] |  | binding result [6]: binds |
| EGEITEGKGSKKGSC [BP2 variant EGEITEGKGSKKGSC] | 9.87 fold |  |
| EGEITEGKLSKKGSC [BP2 variant EGEITEGKLSKKGSC] | 9.72 fold |  |
| DNSRRSAKQRIFMHVDLGSC (Unpurified library peptide) [transferrin binding peptide of FIG. 60G] |  | binding result [8]: binds |
| EGEWTEGKLSLRGSC (chain 1 pos 15: Cys thiol joined via SMCC maleimide to an amine-modified cytosine of the double-stranded DNA linker, which the letters cannot carry, also called BP2 alone conjugated to DNA linker) [BP2 on dsDNA] |  | Kd (Gal80 [2]): 982 nM |
| DFLWSKSGILSHASWNHGSC (Unpurified library peptide) [transferrin binding peptide of FIG. 60D] |  | binding result [9]: binds |
| WMDDIDAPQDEWWVFHHGSC (Unpurified library peptide) [transferrin binding peptide of FIG. 60C] |  | binding result [10]: binds |
| QENDQQSFGLGGMMGQAGSC (Unpurified library peptide) [transferrin binding peptide of FIG. 60K] |  | binding result [11]: binds |
| EGEITEGKKSKLGSC [BP2 variant EGEITEGKKSKLGSC] | 11.1 fold |  |
| EGEDTEGKKSKIGSC [BP2 variant EGEDTEGKKSKIGSC] | 10.4 fold |  |
| EGEWTEGKKSKRGSC [BP2 variant EGEWTEGKKSKRGSC] | 11 fold |  |
| EGEITEGKKSKTGSC [BP2 variant EGEITEGKKSKTGSC] | 10.6 fold |  |
| EGEDTEGKKSKGGSC [BP2 variant EGEDTEGKKSKGGSC] | 10.8 fold |  |
| EGEWTEGKKSKIGSC [BP2 variant EGEWTEGKKSKIGSC] | 10.4 fold |  |
| EGEDTEGKKSKRGSC [BP2 variant EGEDTEGKKSKRGSC] | 10.4 fold |  |
| EGEWTEGKKSKTGSC [BP2 variant EGEWTEGKKSKTGSC] | 10.5 fold |  |
| EGEKTEGKKSKEGSC [BP2 variant EGEKTEGKKSKEGSC] | 9.7 fold |  |
| EGEITEGKKSKGGSC [BP2 variant EGEITEGKKSKGGSC] | 10.8 fold |  |
| EGEKTEGKKSKLGSC [BP2 variant EGEKTEGKKSKLGSC] | 9.81 fold |  |
| TEDNDYMVVSMVVTMEPGSC (Unpurified library peptide) [transferrin binding peptide of FIG. 60L] |  | binding result [12]: binds |
| KMRTITYYHLQAILKQRGSC (Unpurified library peptide) [transferrin binding peptide of FIG. 60F] |  | binding result [13]: binds |

More lines, main results first:

| Fold Enhancement (Gal80 [7]) | Binder | further results |
| --- | --- | --- |
| 10.5 fold | EGEITEGKKSKRGSC [BP2 variant EGEITEGKKSKRGSC] |  |
| 11.3 fold | EGEITEGKKSKIGSC (Made in place on a glass slide by light-directed synthesis) [BP2 variant EGEITEGKKSKIGSC] |  |
| 10.9 fold | EGEITEGKKSKEGSC [BP2 variant EGEITEGKKSKEGSC] |  |
| 8.5 fold | EGEKTEGKKSKTGSC [BP2 variant EGEKTEGKKSKTGSC] |  |
| 9.91 fold | EGEITEGKKSKSGSC [BP2 variant EGEITEGKKSKSGSC] |  |
| 10.7 fold | EGEWTEGKKSKLGSC [BP2 variant EGEWTEGKKSKLGSC] |  |
| 10.2 fold | EGEDTEGKKSKTGSC [BP2 variant EGEDTEGKKSKTGSC] |  |
| 10.4 fold | EGEDTEGKKSKLGSC [BP2 variant EGEDTEGKKSKLGSC] |  |
| 9.24 fold | EGEKTEGKKSKGGSC [BP2 variant EGEKTEGKKSKGGSC] |  |
| 10.7 fold | EGEWTEGKKSKEGSC [BP2 variant EGEWTEGKKSKEGSC] |  |
| 10.1 fold | EGEDTEGKKSKEGSC [BP2 variant EGEDTEGKKSKEGSC] |  |
| 11.1 fold | EGEWTEGKKSKGGSC [BP2 variant EGEWTEGKKSKGGSC] |  |
